Data from US20250186623A1, “EXPRESSION SYSTEM FOR THE TREATMENT OF CANCER” (FUNDACION PARA LA INVESTIGACION MEDICA APLICADA, priority 2022, published 2025).

What was measured:
[1] = test system: B16 cells transduced with AAV8-ISREx4-LucmiR122T; assay: Radiation and IFN signaling on activation of the ISREx4 promoter (luciferase); assay type: cell-based, murine
Text: The ISREx4 promoter responds to interferon downstream signaling.

[2] = test system: MC38 cell lines stably expressing hSTINGmut; assay: scIL-12 mRNA (qPCR) and secreted protein (ELISA) under STING-activity dependent promoters; assay type: cell-based, murine; details: for scIL-12 mRNA or protein expression upon DMXAA treatment: DMXAA 50 μg/mL
Text: The CXCL9-promoter and the CXCL10-promoter from experiment 2, and a full length IFN-β-promoter (IFN-β according to SEQ ID NO: 25) were used for the following experiment. To this end, lentiviral vectors encoding murine scIL-12 under the control of these three different promoters were constructed. […] After the indicated time points, cells were harvested. The cell lysate was used to measure scIL-12 mRNA expression by qPCR as described before (example 1, experiment 1), whereas the supernatant was used to measure secreted scIL-12 protein in NUNC MaxiSorp flat-bottom 96-well plates using an ELISA assay kit (OptEIA, Mouse IL-12 (p70), BD Biosciences, San Diego, CA USA), following manufacturer's instructions.

[3] = test system: human HEK293T cells stably expressing hSTINGmut; assay: Luciferase activity under synthetic promoters (pGL3-basic plasmids); assay type: cell-based; details: for luciferase activity / inducibility upon DMXAA: DMXAA 50 μg/mL, 48 h; for leakage in the absence of DMXAA: vehicle
Text: (§1) As described above, the specificity of the promoters used in the previous experiments was somewhat poor. […] In order to achieve this, synthetic promoters have been generated.
(§2) Seven different promoters were generated, namely short STATx4 (4 STAT motifs separated by 6 nucleotides according to SEQ ID NO: 26), IRSF3×4 (4 IRSF3 motifs separated by 20 nucleotides according to SEQ ID NO: 27), short IRSF3×4 (4 IRSF3 motifs separated by 6 nucleotides according to SEQ ID NO: 28), ISREx4 (4 ISRE motifs separated by 20 nucleotides according to SEQ ID NO: 12), short ISREx4 (4 ISRE motifs separated by 6 nucleotides according to SEQ ID NO: 13), NFκBx4 (4 NFκB motifs separated by 20 nucleotides according to SEQ ID NO: 29) and short NFκBx4 (4 NFκB motifs separated by 6 nucleotides according to SEQ ID NO: 30). […] In addition, a plasmid containing the luciferase sequence under the control of the murine IFN-β-promoter (mIFN-β) and a plasmid containing the luciferase sequence under the control of CXCL10-promoter were used as controls. Either MC38 cells or human HEK293T cells, both which stably expressed hSTINGmut as described above (example 1), were transfected with the indicated plasmids using Lipofectamine3000 according to the manufacturers protocol, whereas a negative control was mock-transfected (Basic).

[4] = test system: MC38 cell lines stably expressing hSTINGmut; assay: Luciferase activity under chemokine promoters; assay type: cell-based, murine; details: for luciferase activity upon DMXAA administration: DMXAA 50 μg/mL, 3 or 6 h; for luciferase activity in the absence of DMXAA (leaky expression): vehicle
Text: Therefore, the objective of this experiment was to examine the specificity of these promoters in their response to DMXAA-induced STING activity.
The CXCL9-promoter (CXCL9 according to SEQ ID NO: 23) and the CXCL10-promoter (CXCL10 according to SEQ ID NO: 24) were used for the following experiment. To this end, lentiviral vectors encoding luciferase under the control of these two different promoters were constructed. […] In addition, the lentiviral vectors encoding the short IFN-β A promoter, the short IFN-β B promoter, the short IFN-β C promoter described in experiment 1 were used as a comparison. […] After another 3 or 6 h, cells were harvested and luciferase activity measured as described in experiment 1.

[5] = test system: MC38 cell lines stably expressing hSTINGmut; assay: Luciferase activity under modified IFN-β promoters; assay type: cell-based, murine
Text: Therefore, the objective of this experiment was to examine the specificity of different modified IFN-β promoters in their response to DMXAA-induced STING activity.
To this end, five different modifications of the IFN-β promoter (short IFN-β A according to SEQ ID NO: 18, short IFN-β B according to SEQ ID NO: 19, short IFN-β C according to SEQ ID NO: 20, short IFN-β D according to SEQ ID NO: 21, short IFN-β E according to SEQ ID NO: 22) were designed. Lentiviral vectors encoding luciferase under the control of these five different promoters were constructed. […] After another 3 h (FIG. 3A) or 3 and 6 h (FIGS. 3B, 3C, 3D) or 6 h (FIGS. 3E, 3F, 3G and 3H), cells were homogenized in 50 μL of Passive Lysis Buffer (Promega) and frozen in dry ice. After 3 cycles of thaw-vortex-freeze to ensure lysis, cells were spun at 12000 g for 2 min at 4° C. 20 μL were added to a luminometer 96-well plate and luciferase activity was determined using the respective substrates D-Luciferin and Coelenterazine.

[6] = test system: MC38 cells stably expressing hSTINGmut; assay: Luciferase activity under synthetic promoters (pGL3-basic plasmids); assay type: cell-based, murine; details: DMXAA 50 μg/mL, 48 h
Text: as §1, §2

[7] = 1,000 IU interferon alone (0 Gy)
[8] = 1,000 IU interferon together with radiation (8 Gy)

In the case of IFN-α, the luciferase activity [1, 7] is reported as “significantly increased luciferase activity” and the luciferase activity [1, 8] is reported as “induced luciferase activity dramatically”.

B1: IFN-γ: exogenously added interferon, 1,000 IU (protein, UniProt P01579 24-161, looked up)
Interferon gamma: QDPYVKEAENLKKYFNAGHSDVADNGTLFLGILKNWKEESDRKIMQSQIVSFYFKLFKNFKDDQSIQKSVETIKEDMNVKFFNSNKKKRDDFEKLTNYSVTDLNVQRKAIHELIQVMAELSPAAKTGKRKRSQMLFRG
B1 was tested, and the luciferase activity [1, 7] was “significantly increased luciferase activity” and the luciferase activity [1, 8] was “induced luciferase activity dramatically”.

B2: CXCL10-promoter: CXCL10-promoter according to SEQ ID NO: 24 (nucleic acid, listed as Mus musculus)
DNA: TCTAACTGTTCACTAAGTTGTATAGACTTTGGATCTGGCTAAATTTGGCGTGTGATTTTTTTTTAAAGTTTATTCCAAGTATTTTATAATAAAGCATATGAAGTAAAAAGCAAAAATAAACAGTGTAAACACAACAAATGTAAAAACCATGGTTAGAACCTGACTTAGATATCAGTTCTGTGTTTTATTTATGAGAGAAGGAAGATGAGAATTAAAGCCATTTCCAGACTTATTCTGCAAGGCACTGCATCTGATTTCTCAAACAGCTCACGCTTTGGAAAGTGAAACTTACCTCACTCGTTAAAAATTAAAAGGAGCACAAGAGGGGAGAGGGAAATTCCAAGTTCATGGGTCACAATAAACACAAGCAATGCCCTCGGTTTACAGGGGACTTCCCTCGGGTTGCGGAGCCTTGCTGAGTCATCTCCAAAGTCAGCCAATCAGGACTCAGGGAGGGAAACTCTTTGCAGATAAATACTCCTCAGCAGCCGGCACTCGAGAAGCGCTTCATCCACCGCTGAGAGACATCCCGAGCCAACCTTCCGGAAGCCTCCCCATCAGCACC
modifications: misc_feature 1..565 CXCL10-promoter
For B2, the “scIL-12 mRNA or protein expression upon DMXAA treatment” value [2] was “highly upregulated”, the “scIL-12 production in the absence of DMXAA (leakage)” value ([2]; vehicle) was “significant leakage” and the “luciferase activity / inducibility upon DMXAA” value [3] was “highest inducibility”. For the same molecule, the “leakage in the absence of DMXAA” value [3] was “considerable leakage”, the “luciferase activity upon DMXAA administration” value [4] was “significantly higher luciferase activities” and the “luciferase activity in the absence of DMXAA (leaky expression)” value (shortened to “luciferase activity in the absence”) [4] was “significant luciferase activity”.

B3: CXCL9-promoter: CXCL9-promoter according to SEQ ID NO: 23 (nucleic acid, listed as Mus musculus)
DNA: GACACAGACATCTCGTGAAACATCTGGAAAAGGTAGCAGGGAACGGGACAGCAGTAGCTTATGCAACTAATCTAGCAATTACAATGATAGGAAACTGTAGCCACGGTGAGACGAAATGGATTTACCCTCAACAAATTAAGAAGCTTTGACTTGTGAGGAAAGGCAGTTTGAGTCGCCATATAGTGTCATGTCCCACGTGGGAAGTACATCTCCAACCTTCATTGTACAACATTAATATAGTCATTGTATAATCTATTCCACATCCAGGTAGCAACTTTGCCTGGGGGTGGTTTCACATCCCTTACTATAAACTCCCCGTTTATGTGAAATGGAAGTAGAACATGCAGAAATTCCCTGGGATCTGAGAGTAGGGTTTTCCCCAGGACGATCAATTTGTGGTTAGTTTAGTTCTTCTAGGTCAGCTGAGGAGACCAGCCAATCAGAGACGGGAAGGAAAAGGGATTTCCTAAATAAATATGATCCCCAAGAACATGCTCTCTAAAGACATTCTCGGACTTCACTCCAACACAGTGACTCAATAGAACTCAGCTCTGCC
modifications: misc_feature 1..556 CXCL9-promoter
With B3 the “scIL-12 mRNA or protein expression upon DMXAA treatment” value [2] was “poor”, the “luciferase activity upon DMXAA administration” value [4] was “significantly higher luciferase activities” and the “luciferase activity in the absence” value [4] was “significant luciferase activity”.

B4: short IFN-β A promoter: modification of the IFN-β promoter according to SEQ ID NO: 18 (nucleic acid)
DNA: CAGGAGCTTGAATAAAATGAATATTAGAAGCTGTTAGAATAAGAGAAAATGACAGAGGAAAACTGAAAGGGAGAACTGAAAGTGGGAAATTCCTCTGAGGCAGAAAGGACCATCCCTTATAAATAGCACAGGCCATGAAGGAAGATCATTCTCACTGCAGCCTTTGACAGCCTTTGCCTCATCTTGCAGGTAGCAGCCGACACCAGCCTGGCTTCCATC
modifications: misc_feature 1..219 short IFNb A-promoter
For B4, the “luciferase activity upon DMXAA treatment” value ([5]; DMXAA 50 μg/mL, 3 h) was “highest luciferase activity” and the “luciferase activity in the absence” value ([5]; vehicle) was “significant luciferase activity”.

B5: IFN-β-promoter: full length IFN-β-promoter according to SEQ ID NO: 25 (nucleic acid, listed as Mus musculus)
DNA: CCAGGATGTGGGGTTCTCTCCCAAAGGGAGCTATGGCCCATTGATGTGCCATTTCTCTTATAGTACACTATTGTAAGCCCCCTGGGAGCTCACAGAGACCCTCTCCCACCATCCCACTATTTCAAAGGGCAGCAGCTGTGCCATCCTTTCAGGATGAGCAGCTACTCTGCCTGGCTTTTCAGTGGACACTTTGGCTGTTTGAGAGTTCTTTTATCTTCAGGGCTGTCTCCTTTCTGTTCTTCTCTCCTGGATATTTCTCTTCCTTTGCTCCAGCAATTGGTGAAACTGTACAAGATTTTATAAATCCTTAGTTTGTATATATTTTAACCCAGTACATAGCATATAAAATAGCCAGGAGCTTGAATAAAATGAATATTAGAAGCTGTTAGAATAAGAGAAAATGACAGAGGAAAACTGAAAGGGAGAACTGAAAGTGGGAAATTCCTCTGAGGCAGAAAGGACCATCCCTTATAAATAGCACAGGCCATGAAGGAAGATCATTCTCACTGCAGCCTTTGACAGCCTTTGCCTCATCTTGCAGGTAGCAGCCGACACCAGCCTGGCTTCCATC
modifications: misc_feature 1..571 IFNb1-promoter
In the case of B5, the “scIL-12 mRNA or protein expression upon DMXAA treatment” value [2] is reported as “poor”.

B6: ISREx4-promoter: 4 ISRE motifs separated by 20 nucleotides according to SEQ ID NO: 12 (nucleic acid)
DNA: ATCTCTGCGATGAACCTCACAGTTTCGCTTTCTATCTCTGCGATGAACCTCACAGTTTCGCTTTCTATCTCTGCGATGAACCTCACAGTTTCGCTTTCTATCTCTGCGATGAACCTCACAGTTTCGCTTTCTGTGCCTCTTATGATCTGGATCTCGAGCCATGGTCGAGGCCTGTAGGCGTGTACGGTGGGAGGCTTATATAAGCAGAGCTC
modifications: misc_feature 1..212 ISREx4
In the case of B6, the “luciferase activity / inducibility upon DMXAA” value [3] is reported as “highest inducibility” and the “leakage in the absence of DMXAA” value [3] is reported as “undetectable leakage”.

B7: short STAT-promoter: 4 STAT motifs separated by 6 nucleotides according to SEQ ID NO: 26 (nucleic acid)
DNA: ATCTCTGCGATGAACCTCACTTCGCTAGAAATCTCTGCGATGAACCTCACTTCGCTAGAAATATCTCTGCGATGAACCTCACTTCGCTAGAAATCTCTGCGATGAACCTCACTTCGCTAGAAGTGCCTCTTATGATCTGGATCTCGAGCCATGGTCGAGGCCTGTAGGCGTGTACGGTGGGAGGCTTATATAAGCAGAGCTC
modifications: misc_feature 1..202 STATx4
In the case of B7, the “luciferase activity / inducibility upon DMXAA” value [6] is reported as “poor inducibility”.
